Where no end group is shown, it is not given here. [ ]: non-standard residue; d: D form. 2Nal = N[C@@H](Cc1ccc2ccccc2c1)C(=O)O; d2Nal = N[C@H](Cc1ccc2ccccc2c1)C(=O)O; 2Thi = N[C@@H](Cc1cccs1)C(=O)O; Cha = N[C@@H](CC1CCCCC1)C(=O)O; d2Thi = N[C@H](Cc1cccs1)C(=O)O; dCha = N[C@H](CC1CCCCC1)C(=O)O
How the values were obtained:
BIR3RING (human) = BIR3RING (human) (UniProt P98170); experiment: fluorescence polarization; 20 nM rhodamine-SMAC, BIR3RING titrated
[1] = biological target: GST-BIR2 (glutathione-S-transferase-BIR2 fusion protein) (human) (UniProt P98170); experiment: fluorescence polarization; 20 nM rhodamine-SMAC, GST-BIR2 from 0 to 495 nM
GST-BIR2 (glutathione-S-transferase-BIR2 fusion protein) (human), sequence (P98170 124-240): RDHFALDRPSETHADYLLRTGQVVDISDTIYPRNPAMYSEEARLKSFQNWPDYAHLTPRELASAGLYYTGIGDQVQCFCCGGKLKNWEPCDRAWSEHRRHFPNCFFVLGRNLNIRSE

GST-XIAP = GST-XIAP (human, UniProt P98170 1-497); experiment: cell-based or functional assay
GST-XIAP, sequence (P98170 whole entry): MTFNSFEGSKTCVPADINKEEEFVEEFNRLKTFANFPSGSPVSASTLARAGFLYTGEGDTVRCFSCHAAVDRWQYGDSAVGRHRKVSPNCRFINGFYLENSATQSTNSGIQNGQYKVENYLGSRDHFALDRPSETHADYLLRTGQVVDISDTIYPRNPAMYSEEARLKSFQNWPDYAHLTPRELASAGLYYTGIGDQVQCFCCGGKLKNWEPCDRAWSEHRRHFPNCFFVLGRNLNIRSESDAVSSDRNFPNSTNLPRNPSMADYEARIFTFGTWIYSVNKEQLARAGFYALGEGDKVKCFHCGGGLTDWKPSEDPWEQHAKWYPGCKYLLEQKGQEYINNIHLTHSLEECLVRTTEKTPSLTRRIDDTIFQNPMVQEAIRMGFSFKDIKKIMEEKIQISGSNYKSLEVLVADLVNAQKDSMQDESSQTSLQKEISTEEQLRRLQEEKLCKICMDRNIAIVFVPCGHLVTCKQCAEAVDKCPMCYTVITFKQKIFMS

BIR3RING (human), sequence (P98170 243-497 limits assumed): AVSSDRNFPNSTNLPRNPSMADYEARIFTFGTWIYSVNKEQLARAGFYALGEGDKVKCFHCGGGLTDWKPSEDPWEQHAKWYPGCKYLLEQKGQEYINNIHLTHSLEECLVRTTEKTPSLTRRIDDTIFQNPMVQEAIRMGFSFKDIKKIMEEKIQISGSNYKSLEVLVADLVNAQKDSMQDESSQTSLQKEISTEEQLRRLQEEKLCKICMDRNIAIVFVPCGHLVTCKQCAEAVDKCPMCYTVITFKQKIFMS

Molecule	Kd (BIR3RING (human)) [nM]	Kd [1] [nM]	ratio of Vmax for hydrolysis of Ac-DEVD-AFC with and without the peptide (caspase-3 + XIAP) (GST-XIAP)
rhodamine labeled SMAC (rhodamine-SMAC) of Example VII (peptide)	80	100	
A[dW]W[2Thi] (also: Trp of TPI 1332 batch may retain formyl groups) [TPI 1332-47 / TPI 1352-47]			> 2.4
AWW[2Thi] (also: Trp of TPI 1332 batch may retain formyl groups) [TPI 1332-1 / TPI 1352-1]			> 2.4
[Cha][d2Nal]W[2Thi] (also: Trp may retain a formyl group) [TPI 1332-41]			> 2.4
[2Nal][dCha]W[dW] [TPI 1352-66]			> 2.4

Other lines, results leading:

Kd (BIR3RING (human)) [nM]	Kd [1] [nM]	ratio of Vmax for hydrolysis of Ac-DEVD-AFC with and without the peptide (caspase-3 + XIAP) (GST-XIAP)	Molecule
		> 2.4	A[dW]W[2Thi] [TPI 1352-6]
		> 2.4	[2Nal][d2Thi][dF][dW] [TPI 1352-72]

From patent publication US20050119176A1 (BURNHAM INSTITUTE, published 2005)
